Here are results for 37 sequences from the supplement of paper PMC7877785.

± gives the uncertainty stated by the source.

A short description of the data set: self-splicing fitness, log relative to wild type (ln ratio); higher = more splicing; Tetrahymena group I intron in knt gene, E. coli kanamycin selection, DiMSum; sequences stand for … in CUCUCU…GGAGGGAAAAGUUAUCAGGCAUGCACCUGGUAGCUAGUCUUUAAACCAAUAGAUUGCAUCGGUUUAAAAGGCAAGACCGUCAAAUUGCGGGAAAGGGGUCAACAGCCGUUCAGUACCAAGUCUCAGGGGAAACUUUGAGAUGGCCUUGCAAAGGGUAUGGUAAUAAGCUGACGGACAUGGUCCUAACCACGCAGCCAAGUCCUAAGUCAACAGAUCUUCUGUUGAUAUGGAUGCAGUUCACAGACUAAAUGUCGGUCGGGGAAGAUGUAUUCUUCUCAUAAGAUAUAGUCGGACCUCUCCUUAAUGGGAGCUAGCGGAUGAAGUGAUGCAACACUGGAGCCGCUGGGAACUAAUUUGUAUGCGAAAGUAUAUUGAUUAGUUUUGGAGUACUCGUGGUCG
In outline:
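A randomised library covering all eight P1ex-region intron nucleotides was built with the intron in the knt kanamycin-resistance gene on pET-22b(+) and held in E. coli BL21(DE3). Cells were grown overnight at 37°C or 30°C on LB agar, with or without 25 μg/mL kanamycin, plus 100 μg/mL carbenicillin, 50 μM IPTG and 0.2% rhamnose, and pooled colonies were amplicon-sequenced on an Illumina HiSeq 2500. DiMSum fitness is the error-weighted combination of wild-type-normalised replicate fold changes, kanamycin versus none.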

AGUAAGCAAUAUUACGGAUA: the “self-splicing fitness (ln)” value was -2.85 ± 0.28 (30 °C) and -1.69 ± 0.21 (37 °C).
Taken in the same sequence, the figures for AGUAAGCAAUAUUACGGGCA were -0.89 ± 0.15 and -0.468 ± 0.19.
Taken in the same sequence, the figures for AGUAAGCAAUAUUACGGUGC were -4.4 ± 0.46 and -1.37 ± 0.17.
Taken in the same sequence, the figures for AGUAAGCAAUAUUACGUAUU were -2.89 ± 0.12 and -3.05 ± 0.19.
Turning to AGUAAGCAAUAUUACGUCAU, the “self-splicing fitness (ln)” value by setting is: (30 °C) -2.97 ± 0.23; (37 °C) -2.12 ± 0.19.
Taken in the same sequence, the figures for AGUAAGCAAUAUUACGUGAA were -3.24 ± 0.15 and -1.68 ± 0.13.
In the case of AGUAAGCAAUAUUACGUGUA, the “self-splicing fitness (ln)” value is, setting by setting: (30 °C) -2.16 ± 0.12; (37 °C) -1.8 ± 0.13.
Taken in the same sequence, the figures for AGUAAGCAAUAUUACGUUCC were -1.85 ± 0.16 and -0.345 ± 0.13.
The like results for AGUCAGCAAUAUUACGAAUG were, in that order, -1.62 ± 0.09 and -0.853 ± 0.11.
Consider AGUCAGCAAUAUUACGAGGC, for which the “self-splicing fitness (ln)” value was -2.81 ± 0.31 (30 °C) and -0.606 ± 0.31 (37 °C).
The like results for AGUCAGCAAUAUUACGAUAG were, in that order, -1.12 ± 0.14 and -2.32 ± 0.23.
Regarding AGUCAGCAAUAUUACGAUGC, the “self-splicing fitness (ln)” value is -1.04 ± 0.097 (30 °C) and -0.00334 ± 0.11 (37 °C).
On to AGUCAGCAAUAUUACGCAAA, for which the “self-splicing fitness (ln)” value (30 °C) was -1.62 ± 0.11 and the “self-splicing fitness (ln)” value (37 °C) is -1.01 ± 0.15.
Regarding AGUCAGCAAUAUUACGCAAG, the “self-splicing fitness (ln)” value runs as follows: (30 °C) -2.69 ± 0.26; (37 °C) -1.28 ± 0.29.
The like results for AGUCAGCAAUAUUACGCGCU were, in that order, -3.02 ± 0.14 and -1.86 ± 0.21.
The like results for AGUCAGCAAUAUUACGCUAU were, in that order, -0.623 ± 0.1 and -0.137 ± 0.11.
For the sequence AGUCAGCAAUAUUACGCUGG, the “self-splicing fitness (ln)” value (30 °C) was -3.87 ± 0.23 and the “self-splicing fitness (ln)” value (37 °C) is -2.71 ± 0.23.
Taken in the same sequence, the figures for AGUCAGCAAUAUUACGCUUA were -0.891 ± 0.12 and 0.278 ± 0.14.
Taken in the same sequence, the figures for AGUCAGCAAUAUUACGCUUC were -2.35 ± 0.2 and -1.79 ± 0.21.
The like results for AGUCAGCAAUAUUACGGACU were, in that order, -2.86 ± 0.27 and -2.27 ± 0.29.
For AGUCAGCAAUAUUACGGAUG, the “self-splicing fitness (ln)” value reads like this: (30 °C) -1.36 ± 0.054; (37 °C) 0.106 ± 0.069.
Taken in the same sequence, the figures for AGUCAGCAAUAUUACGGGUC were -1.27 ± 0.11 and -1.43 ± 0.15.
The like results for AGUCAGCAAUAUUACGGUAG were, in that order, -3.46 ± 0.15 and -2.76 ± 0.21.
For AGUCAGCAAUAUUACGUAGC, the “self-splicing fitness (ln)” value was -2.97 ± 0.13 (30 °C) and -0.778 ± 0.097 (37 °C).
Taken in the same sequence, the figures for AGUCAGCAAUAUUACGUCCG were -2.14 ± 0.12 and -1.29 ± 0.18.
Taken in the same sequence, the figures for AGUCAGCAAUAUUACGUUAU were -1.25 ± 0.099 and -0.0312 ± 0.11.
The like results for AGUCAGCAAUAUUACGUUCC were, in that order, -1.13 ± 0.1 and -0.187 ± 0.12.
As to AGUGAGCAAUAUUACGAAUG, the “self-splicing fitness (ln)” value was -3.4 ± 0.36 (30 °C) and -1.58 ± 0.3 (37 °C).
Taken in the same sequence, the figures for AGUGAGCAAUAUUACGAGAG were -2.1 ± 0.26 and -2.36 ± 0.29.
Taken in the same sequence, the figures for AGUGAGCAAUAUUACGAGGA were -2.48 ± 0.32 and -3.09 ± 0.35.
The like results for AGUGAGCAAUAUUACGAGGG were, in that order, -3.75 ± 0.24 and -2.13 ± 0.35.
With AGUGAGCAAUAUUACGAUAC, the “self-splicing fitness (ln)” value (30 °C) was -3.02 ± 0.22 and the “self-splicing fitness (ln)” value (37 °C) was -2.47 ± 0.34.
The like results for AGUGAGCAAUAUUACGAUCA were, in that order, -1.64 ± 0.13 and -0.675 ± 0.16.
Taken in the same sequence, the figures for AGUGAGCAAUAUUACGAUGA were -4.11 ± 0.39 and -2.24 ± 0.3.
The like results for AGUGAGCAAUAUUACGAUUC were, in that order, -2.97 ± 0.28 and -1.27 ± 0.33.
Take AGUGAGCAAUAUUACGCAAG: the “self-splicing fitness (ln)” value is -2.68 ± 0.22 (30 °C) and -2.98 ± 0.26 (37 °C).
Consider AGUGAGCAAUAUUACGCAGG, for which the “self-splicing fitness (ln)” value (37 °C) was -2.65 ± 0.48.
